The text below walks through data of the supplement of paper PMC10126150.

The subject of this data set is ATP. The experiment in a line: switch fluorescence ratio, 500 uM ATP over buffer (Cy3 cluster intensity, sum of 5 cycles each) (fold (ratio)); higher = stronger signal-on switching upon ATP binding; sequences stand for … in TCGTCGGCAGCGTCAGATGTGTATAAGAGACAGTTTTTTTTTTTTTTTTTTTTTTTTT…TC. Conditions: aptamer strand: ATP DNA aptamer (quencher-CACCTGGGGGAGTATTGCGGAGGAAGG + anchor), 100 nM annealed; ATP concentration: 500 uM. The method in brief:
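For every switch-domain sequence, the fluorescence ratio is the mean of per-cluster values, each being summed target-cycle Cy3 intensity over summed buffer-cycle Cy3 intensity. Clusters outside 100-1000 RFU were excluded. On a modified Illumina MiSeq flow-cell, the Cy3-labelled switching-strand clusters were annealed to 100 nM quencher-labelled ATP aptamer, imaged in selection buffer and then after 15 min with 500 uM ATP at 22 °C. Five such cycles were run, with NaOH stripping and re-annealing between them.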

± gives the standard deviation of the averaged measurements.
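Note: ATP exposure 15 min at 22 °C before imaging.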

Regarding CTGATTTAGC, the switch fluorescence ratio was determined as 1.05 ± 0.043.
On to CTGCACATGG, for which the switch fluorescence ratio worked out at 1.7 ± 0.21.
As to CTGCATCCGG, the switch fluorescence ratio came to 1.314 ± 0.011.
Take CTGCATGACG: the switch fluorescence ratio was determined as 1.01 ± 0.047.
The result for CTGCCCGCCC reads 1.3 ± 0.12.
On to CTGCGAGGGG, for which the switch fluorescence ratio amounted to 1 ± 0.016.
With CTGCGGGATT, the switch fluorescence ratio was determined as 1.02 ± 0.026.
As to CTGCGGGGAG, the switch fluorescence ratio is 1.03 ± 0.037.
In the case of CTGCTAGTTT, the switch fluorescence ratio was found to be 0.983 ± 0.016.
For CTGCTGAGCA, the switch fluorescence ratio stood at 1.03 ± 0.029.
On to CTGCTTCCCG, for which the switch fluorescence ratio was 1.15 ± 0.041.
Turning to CTGGAAATTG, the switch fluorescence ratio was 1.03 ± 0.036.
Turning to CTGGAACGTC, the switch fluorescence ratio was 0.989 ± 0.026.
For the sequence CTGGAAGGGT, the switch fluorescence ratio is 1 ± 0.03.
On to CTGGAATGTT, for which the switch fluorescence ratio was found to be 1.012 ± 0.01.
The result for CTGGACGGTG reads 1.032 ± 0.0042; that for CTGGACTGGT, 0.989 ± 0.012.
For CTGGAGGGGA, the switch fluorescence ratio was 1.04 ± 0.034.
CTGGATAGCG: the switch fluorescence ratio amounted to 0.981 ± 0.044.
CTGGCAAGGT: the switch fluorescence ratio was 1.09 ± 0.031.
For the sequence CTGGCATTTT, the switch fluorescence ratio is 0.9936 ± 0.0054.
With CTGGCGAGCG the figure was 1.03 ± 0.011; with CTGGCGGTCC, 1.028 ± 0.0066.
As for CTGGGAATGG, the switch fluorescence ratio was 1.12 ± 0.11.
As to CTGGGAATTG, the switch fluorescence ratio was 1.05 ± 0.043.
In the case of CTGGGACTGA, the switch fluorescence ratio came to 1.02 ± 0.03.
The result for CTGGGAGGGG reads 1.01 ± 0.029; that for CTGGGAGGTG, 1.03 ± 0.055; that for CTGGGAGTAC, 1.04 ± 0.051.
As to CTGGGGACGT, the switch fluorescence ratio was 0.9821 ± 0.0081.
The result for CTGGGGAGAG reads 1.01 ± 0.026; that for CTGGGGAGCT, 1.03 ± 0.05; that for CTGGGGAGTG, 0.977 ± 0.029.
CTGGGGATGG: the switch fluorescence ratio turned out to be 0.995 ± 0.02.
As for CTGGGGGACG, the switch fluorescence ratio stood at 1.02 ± 0.016.
For CTGGGGGCGA, the switch fluorescence ratio stood at 1.04 ± 0.012.
As for CTGGGGGCGG, the switch fluorescence ratio is 0.986 ± 0.018.
Turning to CTGGGGGGAT, the switch fluorescence ratio was found to be 0.987 ± 0.021.
For the sequence CTGGGGGGCA, the switch fluorescence ratio amounted to 0.997 ± 0.017.
With CTGGGGGGCC, the switch fluorescence ratio worked out at 1.01 ± 0.038.
Regarding CTGGGGGGCG, the switch fluorescence ratio amounted to 0.984 ± 0.066.
As for CTGGGGGGTT, the switch fluorescence ratio worked out at 0.994 ± 0.019.
The result for CTGGGGGTCG reads 1 ± 0.025.
With CTGGGGTAAG, the switch fluorescence ratio is 1.01 ± 0.042.
With CTGGGGTACT, the switch fluorescence ratio was determined as 1.08 ± 0.056.
For CTGGGGTGGG, the switch fluorescence ratio stood at 1.01 ± 0.042.
The result for CTGGGGTTAC reads 1.77 ± 1.
With CTGGGGTTTC, the switch fluorescence ratio was 0.997 ± 0.026.
Regarding CTGGGTAACG, the switch fluorescence ratio amounted to 0.996 ± 0.034.
For CTGGGTAATT, the switch fluorescence ratio was 1.04 ± 0.059.
On to CTGGGTTAGT, for which the switch fluorescence ratio came out at 1.03 ± 0.035.
With CTGGGTTCTC the figure was 0.989 ± 0.016.
Consider CTGGTAAATC, for which the switch fluorescence ratio was found to be 1.02 ± 0.026.
Regarding CTGGTAATGG, the switch fluorescence ratio was found to be 1.04 ± 0.033.
Consider CTGGTAGGGG, for which the switch fluorescence ratio turned out to be 0.983 ± 0.015.
For the sequence CTGGTCAGGG, the switch fluorescence ratio was found to be 0.988 ± 0.013.
On to CTGGTCGGGC, for which the switch fluorescence ratio is 0.982 ± 0.012.
Take CTGGTCGGGG: the switch fluorescence ratio worked out at 1.017 ± 0.0096.
CTGGTGACTG: the switch fluorescence ratio was 0.986 ± 0.096.
The result for CTGGTGCATT reads 1.21 ± 0.11; that for CTGGTTATAG, 0.989 ± 0.028.
With CTGGTTATCG, the switch fluorescence ratio was found to be 0.9998 ± 0.0032.
Turning to CTGGTTCGGT, the switch fluorescence ratio was 1.01 ± 0.037.
With CTGGTTCTTC the figure was 0.95 ± 0.022; with CTGTAAGGTC, 1.01 ± 0.019.
With CTGTAATCGT the figure was 0.9595 ± 0.0086.
For the sequence CTGTAATTAT, the switch fluorescence ratio was found to be 1 ± 0.011.
The result for CTGTAGTCGG reads 1.02 ± 0.03; that for CTGTATATCT, 1.02 ± 0.022.
CTGTATGAGT: the switch fluorescence ratio came out at 0.9879 ± 0.0037.
The result for CTGTATGCGG reads 1.02 ± 0.089.
Turning to CTGTCAAGAT, the switch fluorescence ratio stood at 1.02 ± 0.024.
The result for CTGTCAGATG reads 1 ± 0.025.
For the sequence CTGTCCGGTA, the switch fluorescence ratio came to 1.056 ± 0.008.
Regarding CTGTCGTAAA, the switch fluorescence ratio turned out to be 1.07 ± 0.019.
The result for CTGTCGTTTC reads 0.975 ± 0.044; that for CTGTCTGGTG, 1.025 ± 0.0087.
CTGTCTTATG: the switch fluorescence ratio was determined as 1 ± 0.068.
On to CTGTGCAGTC, for which the switch fluorescence ratio was 1.26 ± 0.075.
Regarding CTGTGGACCG, the switch fluorescence ratio worked out at 0.974 ± 0.017.
The result for CTGTGGCAGC reads 1.033 ± 0.0099; that for CTGTGGCTTT, 1.016 ± 0.0096; that for CTGTGGGGCG, 1.01 ± 0.045.
As to CTGTGGGGGC, the switch fluorescence ratio stood at 1.01 ± 0.016.
In the case of CTGTGGTTTT, the switch fluorescence ratio worked out at 0.98 ± 0.034.
Consider CTGTGTGGAG, for which the switch fluorescence ratio is 0.991 ± 0.013.
The result for CTGTGTGGGA reads 1.01 ± 0.013; that for CTGTGTTGGT, 0.992 ± 0.022.
For the sequence CTGTTACTGA, the switch fluorescence ratio stood at 0.999 ± 0.041.
As for CTGTTACTGC, the switch fluorescence ratio came out at 1 ± 0.031.
With CTGTTAGGGA the figure was 0.958 ± 0.03; with CTGTTATCGC, 1.01 ± 0.042; with CTGTTATTGT, 0.972 ± 0.024.
With CTGTTCGGCG the figure was 0.979 ± 0.042; with CTGTTGGAAT, 0.978 ± 0.025; with CTGTTTAGGA, 1.02 ± 0.053.
With CTGTTTAGTG, the switch fluorescence ratio was 0.9822 ± 0.0061.
Consider CTGTTTCGGT, for which the switch fluorescence ratio was found to be 0.962 ± 0.021.
With CTGTTTGTGA the figure was 0.995 ± 0.011; with CTTAAAGTTT, 0.983 ± 0.041; with CTTAACTTGA, 1 ± 0.025.
The result for CTTAAGGGAA reads 0.9915 ± 0.0065; that for CTTAAGGGAT, 1.0149 ± 0.00017.
In the case of CTTAAGGGCC, the switch fluorescence ratio stood at 1.02 ± 0.012.
Regarding CTTAATAGAC, the switch fluorescence ratio is 2.44 ± 1.9.
In the case of CTTAATCGGC, the switch fluorescence ratio was 1.09 ± 0.11.
As to CTTACGGGAA, the switch fluorescence ratio stood at 1.15 ± 0.1.
For the sequence CTTACGTGCC, the switch fluorescence ratio amounted to 1 ± 0.036.
With CTTACTGCAT the figure was 1.27 ± 0.068; with CTTAGCTCTT, 1.03 ± 0.022; with CTTAGGAGGT, 0.987 ± 0.025.
Consider CTTAGGGGGC, for which the switch fluorescence ratio stood at 1.01 ± 0.051.
With CTTAGGTTGT the figure was 1.004 ± 0.0077; with CTTAGTCAGC, 1.06 ± 0.099; with CTTATAAATT, 0.999 ± 0.021.
Consider CTTATAGGGG, for which the switch fluorescence ratio came out at 1 ± 0.035.
CTTATAGTGG: the switch fluorescence ratio worked out at 1.06 ± 0.058.
Turning to CTTATCATAT, the switch fluorescence ratio came to 1.09 ± 0.1.
On to CTTATCGTTC, for which the switch fluorescence ratio worked out at 1.02 ± 0.013.
With CTTATGAAGC, the switch fluorescence ratio is 1.14 ± 0.012.
